In article PMC3210417 (Nature structural & molecular biology, 2011):

Experiments:
[1] = target: recombinant nucleosome core particle formed from full-length Xenopus recombinant histones and mouse (Xenopus); assay: negative-stain EM of single particles
[2] = target: T1, Epl1 (residues 51–380, EPcA domain) of Piccolo v07 (S. cerevisiae, UniProt P43572 51-380); assay: AUC
T1 sequence: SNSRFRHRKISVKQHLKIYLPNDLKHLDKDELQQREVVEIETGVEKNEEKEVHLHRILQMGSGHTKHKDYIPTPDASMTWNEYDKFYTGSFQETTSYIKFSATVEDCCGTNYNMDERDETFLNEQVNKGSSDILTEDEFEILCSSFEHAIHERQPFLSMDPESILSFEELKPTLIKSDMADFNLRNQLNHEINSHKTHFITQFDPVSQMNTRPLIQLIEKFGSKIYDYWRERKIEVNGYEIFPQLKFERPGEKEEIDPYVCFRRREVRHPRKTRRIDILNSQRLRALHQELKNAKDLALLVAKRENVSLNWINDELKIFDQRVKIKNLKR

“NuA4 histone acetyltransferase complex (from UniProt P43572;Q08649;P38806;Q06337;P38811;Q12432;P39995;P53911;P53201;P53930;P60010;P80428;P47128)” was tested, and the percent of NuA4 particles bound to NCP [1] was 5% and the stoichiometry N [1] was 1.

B1: Yng2 (residues 2–218, without PHD domain) of Piccolo v07 (domain or fragment)
chain: DPSLVLEQTIQDVSNLPSEFRYLLEEIGSNDLKLIEEKKKYEQKESQIHKFIRQQGSIPKHPQEDGLDKEIKESLLKCQSLQREKCVLANTALFLIARHLNKLEKNIALLEEDGVLAPVEEDGDMDSAAEASRESSVVSNSSVKKRRAASSSGSVPPTLKKKKTSRTSKLQNEIDVSSREKSVTPVSPSIEKKIARTKEFKNSRNGKGQNGSPENEE
With B1 the “stoichiometry N” value [2] was 1.

B2: Esa1 (residues 2–445), 6 × His-tagged, of Piccolo v07 (enzyme)
chain: SHDGKEEPGIAKKINSVDDIIIKCQCWVQKNDEERLAEILSINTRKAPPKFYVHYVNYNKRLDEWITTDRINLDKEVLYPKLKATDEDNKKQKKKKATNTSETPQDSLQDGVDGFSRENTDVMDLDNLNVQGIKDENISHEDEIKKLRTSGSMTQNPHEVARVRNLNRIIMGKYEIEPWYFSPYPIELTDEDFIYIDDFTLQYFGSKKQYERYRKKCTLRHPPGNEIYRDDYVSFFEIDGRKQRTWCRNLCLLSKLFLDHKTLYYDVDPFLFYCMTRRDELGHHLVGYFSKEKESADGYNVACILTLPQYQRMGYGKLLIEFSYELSKKENKVGSPEKPLSDLGLLSYRAYWSDTLITLLVEHQKEITIDEISSMTSMTTTDILHTAKTLNILRYYKGQHIIFLNEDILDRYNRLKAKKRRTIDPNRLIWKPPVFTASQLRFAW
In the case of B2, the “stoichiometry N” value [2] is reported as 1.
